Assay results reported in US20250313633A1 (WUXI BIOLOGICS IRELAND, published 2025).

T1: human full-length B7H3 on MCF-7 cells (human, UniProt Q5ZPR3 29-534)
T1 chain: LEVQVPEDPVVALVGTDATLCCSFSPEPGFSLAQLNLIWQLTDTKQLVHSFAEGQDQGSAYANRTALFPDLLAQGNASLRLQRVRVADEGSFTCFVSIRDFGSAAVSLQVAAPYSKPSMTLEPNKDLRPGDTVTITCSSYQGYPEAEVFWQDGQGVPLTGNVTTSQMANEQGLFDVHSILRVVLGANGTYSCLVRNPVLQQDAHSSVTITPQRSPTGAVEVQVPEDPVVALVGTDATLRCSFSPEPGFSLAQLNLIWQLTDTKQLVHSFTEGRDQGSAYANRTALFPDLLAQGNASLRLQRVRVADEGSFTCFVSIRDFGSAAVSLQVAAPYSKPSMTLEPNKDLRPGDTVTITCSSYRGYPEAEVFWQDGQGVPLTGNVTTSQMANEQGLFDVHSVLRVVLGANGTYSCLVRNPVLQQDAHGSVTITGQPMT


Key:
[1] = target: T1, human full-length B7H3 on MCF-7 cells; assay: cell-based or functional assay
[2] = target: T1, human full-length B7H3 on MCF-7 cells; assay: FACS on MCF-7 cells
[3] = target: T1, human full-length B7H3 on MCF-7 cells; assay: cell-based or functional assay

| Internalization on MCF-7, EC50 [1] [nM] | Internalization on MCF-7, Max MFI [1] [MFI] | Max MFI [2] [MFI] | internalization, EC50 [3] [nM] | Binder |
| --- | --- | --- | --- | --- |
| 1.95 | 39800 | 4640 | – | Enoblituzumab (MacroGenics) (antibody, V domains shown) VH: EVQLVESGGGLVQPGGSLRLSCAASGFTFSSFGMHWVRQAPGKGLEWVAYISSDSSAIYYADTVKGRFTISRDNAKNSLYLQMNSLRDEDTAVYYCGRGRENIYYGSRLDYWGQGTTVTVSS VL: DIQLTQSPSFLSASVGDRVTITCKASQNVDTNVAWYQQKPGKAPKALIYSASYRYSGVPSRFSGSGSGTDFTLTISSLQPEDFATYYCQQYNNYPFTFGQGTKLEIKR |
| 0.44 | 52300 | 19900 | 0.51 | W301088-1.145.16-z3-p1-uIgG1KV320 (antibody, V domains shown, human IgG1 LALA, kappa; also called the final lead antibody; final lead) VH: QVQLQESGPGLVKPSQTLSLTCTVTDYSITGDYAWNWIRQHPGKGLEWIGYISYSGSTSYNPSLQSRVTISRDTSKNQFSLKLSSVTAADTAVYFCARSLGRRWYFVVWGQGTTVTVSS VL: not shown |
| 0.51 | 57200 | 19800 | – | W301088-1.145.16-xIgG1KV320 (antibody, V domains shown, also called the chimeric antibody; chimeric antibody) VH: DVQLQESGPGLVKPSQSLSLTCTVTDYSITGDYAWNWIRQFPGNKLEWMGYISYSGSTSYNPSLQSRISITRDTSKNQFFLQLNSVTSEDTATYFCARSLGRRWYFVVWGAGTTVTVSA VL: not shown |
